Laboratory results reported in US20170015742A1 (published 2017).
Changes are numbered by the printed parent chain.

B1: 4G8.2-GS10-9E8.4 (bispecific antibody, human IgG1, kappa, L234A L235A)
heavy: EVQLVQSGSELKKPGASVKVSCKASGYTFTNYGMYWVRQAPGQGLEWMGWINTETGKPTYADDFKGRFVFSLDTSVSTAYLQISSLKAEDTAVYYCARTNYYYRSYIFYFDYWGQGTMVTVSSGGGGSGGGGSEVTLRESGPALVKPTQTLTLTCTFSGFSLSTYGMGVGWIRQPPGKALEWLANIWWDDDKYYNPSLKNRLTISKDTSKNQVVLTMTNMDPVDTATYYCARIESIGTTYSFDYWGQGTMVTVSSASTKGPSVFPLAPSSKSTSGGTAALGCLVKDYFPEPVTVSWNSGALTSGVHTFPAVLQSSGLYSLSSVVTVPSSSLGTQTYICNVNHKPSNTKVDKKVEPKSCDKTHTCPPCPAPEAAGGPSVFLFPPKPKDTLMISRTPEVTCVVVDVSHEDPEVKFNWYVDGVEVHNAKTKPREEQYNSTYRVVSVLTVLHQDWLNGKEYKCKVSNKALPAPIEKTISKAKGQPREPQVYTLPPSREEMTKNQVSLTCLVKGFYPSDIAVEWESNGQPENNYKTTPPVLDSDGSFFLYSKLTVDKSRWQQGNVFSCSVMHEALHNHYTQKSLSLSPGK
light: ATQLTQSPSLSASVGDRVTITCRASESVSTHMHWYQQKPGKQPKLLIYGASNLESGVPSRFSGSGSGTDFTLTISSLQPEDFATYFCQQSWNDPFTFGQGTKLEIKRGGSGGGGSGEFVLTQSPGTLSLSPGERATLSCERSSGDIGDSYVSWYQQKPGQAPRLVIYADDQRPSGIPDRFSGSGSGTDFTLTISRLEPEDFAVYYCQSYDINIDIVFGGGTKVEIKRTVAAPSVFIFPPSDEQLKSGTASVVCLLNNFYPREAKVQWKVDNALQSGNSQESVTEQDSKDSTYSLSSTLTLSKADYEKHKVYACEVTHQGLSSPVTKSFNRGEC
B2: 4G8.5-GS10-9E8.4 (bispecific antibody, human IgG1, kappa, L234A L235A)
heavy: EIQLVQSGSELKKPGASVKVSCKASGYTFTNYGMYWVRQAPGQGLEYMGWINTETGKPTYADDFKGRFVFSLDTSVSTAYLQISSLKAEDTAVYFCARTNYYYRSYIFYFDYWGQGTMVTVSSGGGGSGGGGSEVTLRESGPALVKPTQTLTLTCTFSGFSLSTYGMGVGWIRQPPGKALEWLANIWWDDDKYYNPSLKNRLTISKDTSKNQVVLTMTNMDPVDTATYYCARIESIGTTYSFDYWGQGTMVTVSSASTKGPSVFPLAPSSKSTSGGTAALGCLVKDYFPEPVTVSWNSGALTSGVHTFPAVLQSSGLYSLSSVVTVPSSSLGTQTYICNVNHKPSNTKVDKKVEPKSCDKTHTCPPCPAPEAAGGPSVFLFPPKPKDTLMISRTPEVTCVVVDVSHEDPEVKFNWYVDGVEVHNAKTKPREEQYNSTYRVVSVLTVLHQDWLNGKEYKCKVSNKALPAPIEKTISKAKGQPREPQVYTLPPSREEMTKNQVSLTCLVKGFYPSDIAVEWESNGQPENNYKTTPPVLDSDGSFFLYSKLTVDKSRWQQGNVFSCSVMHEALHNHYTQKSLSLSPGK
light: B1 light
B3: 4G8.4-GS10-9E8.4 (bispecific antibody, human IgG1, kappa, L234A L235A)
heavy: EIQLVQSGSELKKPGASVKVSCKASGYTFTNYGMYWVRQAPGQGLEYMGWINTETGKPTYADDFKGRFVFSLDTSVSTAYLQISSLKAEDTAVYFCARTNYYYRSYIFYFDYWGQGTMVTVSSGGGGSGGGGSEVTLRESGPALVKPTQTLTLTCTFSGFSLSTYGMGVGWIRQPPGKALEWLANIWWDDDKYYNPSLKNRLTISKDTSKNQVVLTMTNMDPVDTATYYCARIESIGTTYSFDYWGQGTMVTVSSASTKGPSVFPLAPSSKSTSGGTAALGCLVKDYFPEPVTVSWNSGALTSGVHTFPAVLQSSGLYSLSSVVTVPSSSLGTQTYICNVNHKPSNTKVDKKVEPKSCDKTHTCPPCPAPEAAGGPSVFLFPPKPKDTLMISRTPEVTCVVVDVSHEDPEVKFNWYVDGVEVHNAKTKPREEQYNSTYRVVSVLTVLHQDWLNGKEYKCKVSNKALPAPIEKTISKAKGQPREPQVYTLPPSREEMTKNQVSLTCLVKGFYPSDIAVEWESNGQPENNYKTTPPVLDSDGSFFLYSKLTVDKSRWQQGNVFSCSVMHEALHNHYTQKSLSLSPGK
light: AIQLTQSPSSLSASVGDRVTITCRASESVSTHMHWYQQKPGKAPKLLIYGASNLESGVPSRFSGSGSGTDFTLTISSLQPEDFATYYCQQSWNDPFTFGQGTKLEIKRGGSGGGGSGEFVLTQSPGTLSLSPGERATLSCERSSGDIGDSYVSWYQQKPGQAPRLVIYADDQRPSGIPDRFSGSGSGTDFTLTISRLEPEDFAVYYCQSYDINIDIVFGGGTKVEIKRTVAAPSVFIFPPSDEQLKSGTASVVCLLNNFYPREAKVQWKVDNALQSGNSQESVTEQDSKDSTYSLSSTLTLSKADYEKHKVYACEVTHQGLSSPVTKSFNRGEC
B4: 9E10.1_GS_3E2.1 (bispecific antibody, human IgG1, kappa, L234A L235A)
heavy: EIQLVQSGSELKKPGASVKVSCKASGYTFTNYGMYWVKQAPGQGLEYMGWIDTETGRPTYADDFKGRFVFSLDTSVSTAYLQISSLKAEDTAVYFCARWSGDTTGIRGPWFAYWGQGTLVTVSSGGGGSGGGGSEVQLVQSGAEVKKPGSSVKVSCKASGYTFTESYMYWVKQAPGQGLELIGRIDPEDGSTDYVEKFKNKATLTADKSTSTAYMELSSLRSEDTAVYFCARFGARSYFYPMDAWGQGTTVTVSSASTKGPSVFPLAPSSKSTSGGTAALGCLVKDYFPEPVTVSWNSGALTSGVHTFPAVLQSSGLYSLSSVVTVPSSSLGTQTYICNVNHKPSNTKVDKKVEPKSCDKTHTCPPCPAPEAAGGPSVFLFPPKPKDTLMISRTPEVTCVVVDVSHEDPEVKFNWYVDGVEVHNAKTKPREEQYNSTYRVVSVLTVLHQDWLNGKEYKCKVSNKALPAPIEKTISKAKGQPREPQVYTLPPSREEMTKNQVSLTCLVKGFYPSDIAVEWESNGQPENNYKTTPPVLDSDGSFFLYSKLTVDKSRWQQGNVFSCSVMHEALHNAYTQKSLSLSPGK
light: DIRMTQSPSSLSASVGDRVTIECLASEDIYSDLAWYQQKPGKSPKLLIYNANGLQNGVPSRFSGSGSGTDYSLTISSLQPEDVATYFCQQYNYFPGTFGQGTKLEIKGGSGGGGSGGETVLTQSPATLSLSPGERATLSCRASESVSTLMHWYQQKPGQQPRLLIYGASNLESGVPARFSGSGSGTDFTLTISSLEPEDFAVYFCQQSWNDPWTFGGGTKVEIKRTVAAPSVFIFPPSDEQLKSGTASVVCLLNNFYPREAKVQWKVDNALQSGNSQESVTEQDSKDSTYSLSSTLTLSKADYEKHKVYACEVTHQGLSSPVTKSFNRGEC
B5: 9E10.6_GS_3E2.1 (bispecific antibody, human IgG1, kappa, L234A L235A)
heavy: EVQLVQSGAEVKKPGSSVKVSCKASGYTFTNYGMYWVRQAPGQGLEWMGWIDTETGRPTYADDFKGRFTFTADKSTSTAYMELSSLRSEDTAVYYCARWSGDTTGIRGPWFAYWGQGTLVTVSSGGGGSGGGGSEVQLVQSGAEVKKPGSSVKVSCKASGYTFTESYMYWVKQAPGQGLELIGRIDPEDGSTDYVEKFKNKATLTADKSTSTAYMELSSLRSEDTAVYFCARFGARSYFYPMDAWGQGTTVTVSSASTKGPSVFPLAPSSKSTSGGTAALGCLVKDYFPEPVTVSWNSGALTSGVHTFPAVLQSSGLYSLSSVVTVPSSSLGTQTYICNVNHKPSNTKVDKKVEPKSCDKTHTCPPCPAPEAAGGPSVFLFPPKPKDTLMISRTPEVTCVVVDVSHEDPEVKFNWYVDGVEVHNAKTKPREEQYNSTYRVVSVLTVLHQDWLNGKEYKCKVSNKALPAPIEKTISKAKGQPREPQVYTLPPSREEMTKNQVSLTCLVKGFYPSDIAVEWESNGQPENNYKTTPPVLDSDGSFFLYSKLTVDKSRWQQGNVFSCSVMHEALHNAYTQKSLSLSPGK
light: B4 light with E22T, S72T
B6: 4G8.12-GS10-9E8.4 (bispecific antibody, human IgG1, kappa, L234A L235A)
heavy: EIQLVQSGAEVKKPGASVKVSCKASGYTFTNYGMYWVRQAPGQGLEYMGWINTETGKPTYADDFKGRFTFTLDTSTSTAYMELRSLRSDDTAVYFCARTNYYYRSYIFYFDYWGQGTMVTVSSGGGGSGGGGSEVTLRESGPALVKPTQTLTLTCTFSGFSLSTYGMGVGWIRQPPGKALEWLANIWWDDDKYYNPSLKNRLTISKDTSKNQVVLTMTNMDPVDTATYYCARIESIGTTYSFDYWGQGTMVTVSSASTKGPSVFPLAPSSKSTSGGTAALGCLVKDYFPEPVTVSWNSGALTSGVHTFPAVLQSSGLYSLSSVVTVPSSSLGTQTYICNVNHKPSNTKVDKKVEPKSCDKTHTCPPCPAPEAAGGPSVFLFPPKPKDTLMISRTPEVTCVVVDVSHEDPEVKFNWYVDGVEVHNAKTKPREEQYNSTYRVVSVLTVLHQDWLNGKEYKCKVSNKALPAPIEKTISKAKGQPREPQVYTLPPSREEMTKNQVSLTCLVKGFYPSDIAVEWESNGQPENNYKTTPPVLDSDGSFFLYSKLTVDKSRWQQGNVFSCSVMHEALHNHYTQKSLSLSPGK
light: DTVLTQSPATLSLSPGERATLSCRASESVSTHMHWYQQKPGQAPRLLIYGASNLESGVPARFSGSGSGTDFTLTISSLEPEDFAVYFCQQSWNDPFTFGQGTKLEIKRGGSGGGGSGEFVLTQSPGTLSLSPGERATLSCERSSGDIGDSYVSWYQQKPGQAPRLVIYADDQRPSGIPDRFSGSGSGTDFTLTISRLEPEDFAVYYCQSYDINIDIVFGGGTKVEIKRTVAAPSVFIFPPSDEQLKSGTASVVCLLNNFYPREAKVQWKVDNALQSGNSQESVTEQDSKDSTYSLSSTLTLSKADYEKHKVYACEVTHQGLSSPVTKSFNRGEC
B7: 4G8.13-GS10-9E8.4 (bispecific antibody, human IgG1, kappa, L234A L235A)
heavy: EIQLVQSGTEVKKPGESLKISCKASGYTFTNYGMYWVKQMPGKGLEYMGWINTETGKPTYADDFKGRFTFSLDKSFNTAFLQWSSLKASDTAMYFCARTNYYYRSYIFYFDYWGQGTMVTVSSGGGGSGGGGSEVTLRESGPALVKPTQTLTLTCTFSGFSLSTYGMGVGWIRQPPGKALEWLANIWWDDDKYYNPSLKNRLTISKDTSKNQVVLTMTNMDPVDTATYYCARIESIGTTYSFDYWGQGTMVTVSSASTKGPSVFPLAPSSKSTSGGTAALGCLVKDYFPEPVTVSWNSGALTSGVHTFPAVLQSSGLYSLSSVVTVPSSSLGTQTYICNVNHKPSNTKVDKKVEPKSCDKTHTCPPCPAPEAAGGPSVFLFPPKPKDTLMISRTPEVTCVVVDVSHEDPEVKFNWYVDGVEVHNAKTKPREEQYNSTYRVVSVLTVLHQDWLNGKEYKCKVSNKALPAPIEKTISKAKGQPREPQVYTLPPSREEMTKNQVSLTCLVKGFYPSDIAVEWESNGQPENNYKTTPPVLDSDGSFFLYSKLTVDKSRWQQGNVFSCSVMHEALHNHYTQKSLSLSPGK
light: B6 light with D1E, L13V, E79Q, P80S, K103R
B8: 4G8.14-GS10-9E8.4 (bispecific antibody, human IgG1, kappa, L234A L235A)
heavy: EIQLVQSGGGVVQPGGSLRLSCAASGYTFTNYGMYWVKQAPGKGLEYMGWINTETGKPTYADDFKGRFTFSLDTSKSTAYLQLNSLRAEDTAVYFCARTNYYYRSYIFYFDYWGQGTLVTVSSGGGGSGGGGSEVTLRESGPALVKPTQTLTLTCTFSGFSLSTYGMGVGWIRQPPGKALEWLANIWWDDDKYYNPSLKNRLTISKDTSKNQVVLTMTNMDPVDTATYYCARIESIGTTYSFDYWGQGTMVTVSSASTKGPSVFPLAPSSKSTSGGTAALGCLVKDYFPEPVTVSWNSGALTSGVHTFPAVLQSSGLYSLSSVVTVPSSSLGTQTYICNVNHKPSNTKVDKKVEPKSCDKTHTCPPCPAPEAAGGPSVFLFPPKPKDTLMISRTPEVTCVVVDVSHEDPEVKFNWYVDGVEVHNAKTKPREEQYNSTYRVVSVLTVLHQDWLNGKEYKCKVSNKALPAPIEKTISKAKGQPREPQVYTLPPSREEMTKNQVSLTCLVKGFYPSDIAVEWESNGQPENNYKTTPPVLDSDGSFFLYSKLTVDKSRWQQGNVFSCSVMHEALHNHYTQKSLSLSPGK
light: B6 light with A9S, L13A, L21I, R45K, A60S, G66R, E79Q, L104V
B9: 4G8.5_GS_3E2.1 (bispecific antibody, human IgG1, kappa, L234A L235A)
heavy: EIQLVQSGSELKKPGASVKVSCKASGYTFTNYGMYWVRQAPGQGLEYMGWINTETGKPTYADDFKGRFVFSLDTSVSTAYLQISSLKAEDTAVYFCARTNYYYRSYIFYFDYWGQGTMVTVSSGGGGSGGGGSEVQLVQSGAEVKKPGSSVKVSCKASGYTFTESYMYWVKQAPGQGLELIGRIDPEDGSTDYVEKFKNKATLTADKSTSTAYMELSSLRSEDTAVYFCARFGARSYFYPMDAWGQGTTVTVSSASTKGPSVFPLAPSSKSTSGGTAALGCLVKDYFPEPVTVSWNSGALTSGVHTFPAVLQSSGLYSLSSVVTVPSSSLGTQTYICNVNHKPSNTKVDKKVEPKSCDKTHTCPPCPAPEAAGGPSVFLFPPKPKDTLMISRTPEVTCVVVDVSHEDPEVKFNWYVDGVEVHNAKTKPREEQYNSTYRVVSVLTVLHQDWLNGKEYKCKVSNKALPAPIEKTISKAKGQPREPQVYTLPPSREEMTKNQVSLTCLVKGFYPSDIAVEWESNGQPENNYKTTPPVLDSDGSFFLYSKLTVDKSRWQQGNVFSCSVMHEALHNAYTQKSLSLSPGK
light: ATQLTQSPSLSASVGDRVTITCRASESVSTHMHWYQQKPGKQPKLLIYGASNLESGVPSRFSGSGSGTDFTLTISSLQPEDFATYFCQQSWNDPFTFGQGTKLEIKGGSGGGGSGGETVLTQSPATLSLSPGERATLSCRASESVSTLMHWYQQKPGQQPRLLIYGASNLESGVPARFSGSGSGTDFTLTISSLEPEDFAVYFCQQSWNDPWTFGGGTKVEIKRTVAAPSVFIFPPSDEQLKSGTASVVCLLNNFYPREAKVQWKVDNALQSGNSQESVTEQDSKDSTYSLSSTLTLSKADYEKHKVYACEVTHQGLSSPVTKSFNRGEC
B10: 4G8.5_GS_CL-33675 (bispecific antibody, human IgG1, kappa, L234A L235A)
heavy: EIQLVQSGSELKKPGASVKVSCKASGYTFTNYGMYWVRQAPGQGLEYMGWINTETGKPTYADDFKGRFVFSLDTSVSTAYLQISSLKAEDTAVYFCARTNYYYRSYIFYFDYWGQGTMVTVSSGGGGSGGGGSEVTLRESGPALVKPTQTLTLTCTFSGFSLSTYGMGVGWIRQPPGKALEWLANIWWDDDKYYNPSLKNRLTISKDTSKNQVVLTMTNMDPVDTATYYCARIESSGPKYSFDYWGQGTMVTVSSASTKGPSVFPLAPSSKSTSGGTAALGCLVKDYFPEPVTVSWNSGALTSGVHTFPAVLQSSGLYSLSSVVTVPSSSLGTQTYICNVNHKPSNTKVDKKVEPKSCDKTHTCPPCPAPEAAGGPSVFLFPPKPKDTLMISRTPEVTCVVVDVSHEDPEVKFNWYVDGVEVHNAKTKPREEQYNSTYRVVSVLTVLHQDWLNGKEYKCKVSNKALPAPIEKTISKAKGQPREPQVYTLPPSREEMTKNQVSLTCLVKGFYPSDIAVEWESNGQPENNYKTTPPVLDSDGSFFLYSKLTVDKSRWQQGNVFSCSVMHEALHNAYTQKSLSLSPGK
light: ATQLTQSPSLSASVGDRVTITCRASESVSTHMHWYQQKPGKQPKLLIYGASNLESGVPSRFSGSGSGTDFTLTISSLQPEDFATYFCQQSWNDPFTFGQGTKLEIKGGSGGGGSGGEIVLTQSPGTLSLSPGERATLSCRASSGSIWYSFVSWYQQKPGQAPRLLIYADDQRASGIPDRFSGSGSGTDFTLTISRLEPEDFAVYYCQSYGINIDVVFGGGTKVEIKRTVAAPSVFIFPPSDEQLKSGTASVVCLLNNFYPREAKVQWKVDNALQSGNSQESVTEQDSKDSTYSLSSTLTLSKADYEKHKVYACEVTHQGLSSPVTKSFNRGEC

target: recombinant human VEGF165 (human, UniProt P15692 207-395); test: cell-based or functional assay
Sequence (P15692 other isoform, or with tags, fused parts or gaps limits assumed): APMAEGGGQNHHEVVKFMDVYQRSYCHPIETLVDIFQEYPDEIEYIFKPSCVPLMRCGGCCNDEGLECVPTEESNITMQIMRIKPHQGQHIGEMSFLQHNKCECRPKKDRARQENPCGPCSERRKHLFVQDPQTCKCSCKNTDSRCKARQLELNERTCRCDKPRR

**Q.** How did the “Potency IC50 (nM) HMVEC-d hVEGF165” value turn out when B1 was run?
**A.** 0.221 nM

**Q.** B2 was tested. Which “Potency IC50 (nM) HMVEC-d hVEGF165” value did it give?
**A.** 0.079 nM

**Q.** With B3 as the binder, how does the “Potency IC50 (nM) HMVEC-d hVEGF165” value read?
**A.** 0.281 nM

**Q.** How did the “Potency IC50 (nM) HMVEC-d hVEGF165” value turn out when B4 was run?
**A.** 0.054 nM

**Q.** How did the “Potency IC50 (nM) HMVEC-d hVEGF165” value turn out when B5 was run?
**A.** 0.06 nM

**Q.** B6 was tested. Which “Potency IC50 (nM) HMVEC-d hVEGF165” value did it give?
**A.** 0.079 nM

**Q.** How did the “Potency IC50 (nM) HMVEC-d hVEGF165” value turn out when B7 was run?
**A.** 0.907 nM

**Q.** B8 was tested. Which “Potency IC50 (nM) HMVEC-d hVEGF165” value did it give?
**A.** 0.113 nM

**Q.** How did the “Potency IC50 (nM) HMVEC-d hVEGF165” value turn out when B9 was run?
**A.** 0.072 nM

**Q.** B10 was tested. Which “Potency IC50 (nM) HMVEC-d hVEGF165” value did it give?
**A.** 0.076 nM

target: recombinant human PDGF-BB (human, UniProt P01127 82-190); test: cell-based or functional assay
Sequence (P01127 82-190 limits assumed): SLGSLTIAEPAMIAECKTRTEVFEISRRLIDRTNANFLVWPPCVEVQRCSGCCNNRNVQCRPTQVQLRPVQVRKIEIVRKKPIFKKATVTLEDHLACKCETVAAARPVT

**Q.** For B1, which “Potency IC50 (nM) NIH-3T3 hPDGF-BB” value is on record?
**A.** > 5 nM

**Q.** With B2 as the binder, how does the “Potency IC50 (nM) NIH-3T3 hPDGF-BB” value read?
**A.** > 5 nM

**Q.** Which “Potency IC50 (nM) NIH-3T3 hPDGF-BB” value does the source give for B3 here?
**A.** 1.33 nM

**Q.** For B4, which “Potency IC50 (nM) NIH-3T3 hPDGF-BB” value is on record?
**A.** 5.72 nM

**Q.** How did the “Potency IC50 (nM) NIH-3T3 hPDGF-BB” value turn out when B5 was run?
**A.** 1.32 nM

**Q.** Which “Potency IC50 (nM) NIH-3T3 hPDGF-BB” value does the source give for B6 here?
**A.** 0.227 nM

**Q.** Which “Potency IC50 (nM) NIH-3T3 hPDGF-BB” value does the source give for B7 here?
**A.** 0.255 nM

**Q.** Which “Potency IC50 (nM) NIH-3T3 hPDGF-BB” value does the source give for B8 here?
**A.** 0.459 nM

**Q.** With B9 as the binder, how does the “Potency IC50 (nM) NIH-3T3 hPDGF-BB” value read?
**A.** 1.4 nM

**Q.** For B10, which “Potency IC50 (nM) NIH-3T3 hPDGF-BB” value is on record?
**A.** 0.05 nM
